# Test system: Escherichia coli TOP10
# Test: shrunken log2 fold change of peptide-encoding DNA abundance (4.5 h post-induction vs induction); higher = less antimicrobial activity (less host growth inhibition)
# Details: time post-induction: 4.5 h; library: site-saturation at positions 5, 18, 19, 20
# 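Further: peptides expressed intracellularly from a pBAD plasmid library in pooled LB shake-flask culture, induced with 0.3% L-arabinose, DNA abundance read by NGS, three biological replicates, DESeq2 with apeglm shrinkage.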
row,Sequence,shrunken log2 fold change
1,RRIRDRPPRLPRPRPRPCKFPRP,0.0155
2,RRIRKRPPRLPRPRPRPGSMPRP,0.285
3,RRIRMRPPRLPRPRPRPQYYPRP,-0.805
4,RRIRGRPPRLPRPRPRPCMTPRP,2.89
5,RRIRQRPPRLPRPRPRPIHEPRP,-0.0182
6,RRIRYRPPRLPRPRPRPTWGPRP,-0.19
7,RRIRERPPRLPRPRPRPVTCPRP,-0.204
8,RRIRVRPPRLPRPRPRPCHKPRP,-0.203
9,RRIRTRPPRLPRPRPRPPTVPRP,0.44
10,RRIRLRPPRLPRPRPRPMMFPRP,-0.269
11,RRIRRRPPRLPRPRPRPNDLPRP,-0.0791
12,RRIRDRPPRLPRPRPRPFMFPRP,0.033
13,RRIRPRPPRLPRPRPRPIFGPRP,0.0562
14,RRIRIRPPRLPRPRPRPKRDPRP,-0.106
15,RRIRIRPPRLPRPRPRPASLPRP,-0.0288
16,RRIRRRPPRLPRPRPRPDHQPRP,-0.18
17,RRIRHRPPRLPRPRPRPNVHPRP,-0.113
18,RRIRARPPRLPRPRPRPCWVPRP,0.237
19,RRIRIRPPRLPRPRPRPDLDPRP,-3.99e-05
20,RRIRDRPPRLPRPRPRPFHYPRP,-0.00232
21,RRIRDRPPRLPRPRPRPLGLPRP,0.0955
22,RRIRFRPPRLPRPRPRPLQTPRP,0.165
23,RRIRARPPRLPRPRPRPNRCPRP,0.0646
24,RRIRKRPPRLPRPRPRPTVVPRP,1
25,RRIRMRPPRLPRPRPRPQHLPRP,-0.344

row,Sequence,shrunken log2 fold change
1,RRIRVRPPRLPRPRPRPKSIPRP,-0.172
2,RRIRMRPPRLPRPRPRPWSYPRP,0.206
3,RRIRRRPPRLPRPRPRPVTLPRP,0.0854
4,RRIRHRPPRLPRPRPRPIEAPRP,-0.131
5,RRIRTRPPRLPRPRPRPGVNPRP,-0.0412
6,RRIRERPPRLPRPRPRPRYPPRP,0.00273
7,RRIRERPPRLPRPRPRPGVEPRP,-0.194
8,RRIRARPPRLPRPRPRPLHHPRP,-0.0724
9,RRIRERPPRLPRPRPRPMMKPRP,-0.282
10,RRIRYRPPRLPRPRPRPAYRPRP,-0.0312
11,RRIRERPPRLPRPRPRPVMWPRP,0.0878
12,RRIRLRPPRLPRPRPRPDSVPRP,0.0031
13,RRIRCRPPRLPRPRPRPSCEPRP,-0.493
14,RRIRERPPRLPRPRPRPRWGPRP,0.239
15,RRIRMRPPRLPRPRPRPDGWPRP,1.48
16,RRIRARPPRLPRPRPRPFISPRP,0.112
17,RRIRWRPPRLPRPRPRPCGQPRP,0.137
18,RRIRPRPPRLPRPRPRPQADPRP,0.154
19,RRIRWRPPRLPRPRPRPLRDPRP,0.655
20,RRIRCRPPRLPRPRPRPHLMPRP,-0.223
21,RRIRHRPPRLPRPRPRPDLEPRP,-0.00264
22,RRIRSRPPRLPRPRPRPYFQPRP,-0.951
23,RRIRYRPPRLPRPRPRPAGSPRP,0.0105
24,RRIRRRPPRLPRPRPRPCFYPRP,-0.187
25,RRIRRRPPRLPRPRPRPALLPRP,-0.0136

row,Sequence,shrunken log2 fold change
1,RRIRNRPPRLPRPRPRPEEIPRP,-0.000921
2,RRIRPRPPRLPRPRPRPQKHPRP,0.865
3,RRIRIRPPRLPRPRPRPGIHPRP,-0.31
4,RRIRSRPPRLPRPRPRPKSKPRP,-0.0869
5,RRIRNRPPRLPRPRPRPTAFPRP,0.00576
6,RRIRPRPPRLPRPRPRPTFIPRP,-0.243
7,RRIRRRPPRLPRPRPRPEVRPRP,0.176
8,RRIRNRPPRLPRPRPRPDVVPRP,-0.0975
9,RRIRQRPPRLPRPRPRPNDEPRP,0.0763
10,RRIRFRPPRLPRPRPRPYAIPRP,-0.536
11,RRIRCRPPRLPRPRPRPSTCPRP,-0.355
12,RRIRRRPPRLPRPRPRPQVYPRP,-0.0473
13,RRIRNRPPRLPRPRPRPRIDPRP,-0.0916
14,RRIRFRPPRLPRPRPRPVNVPRP,-0.404
15,RRIRYRPPRLPRPRPRPEAHPRP,-0.281
16,RRIRTRPPRLPRPRPRPCRLPRP,0.0337
17,RRIRCRPPRLPRPRPRPIITPRP,-0.892
18,RRIRTRPPRLPRPRPRPHRRPRP,0.0892
19,RRIRHRPPRLPRPRPRPFLKPRP,-0.0136
20,RRIRSRPPRLPRPRPRPTKRPRP,0.294
21,RRIRHRPPRLPRPRPRPWQIPRP,-0.453
22,RRIRMRPPRLPRPRPRPNFIPRP,-0.371
23,RRIRVRPPRLPRPRPRPGNYPRP,-0.162
24,RRIRTRPPRLPRPRPRPRFGPRP,0.319
25,RRIRDRPPRLPRPRPRPWGPPRP,-0.0594

row,Sequence,shrunken log2 fold change
1,RRIRARPPRLPRPRPRPCDTPRP,0.255
2,RRIRYRPPRLPRPRPRPSLQPRP,-0.126
3,RRIRTRPPRLPRPRPRPWMCPRP,0.0404
4,RRIRTRPPRLPRPRPRPRRHPRP,0.0424
5,RRIRDRPPRLPRPRPRPIFFPRP,0.0831
6,RRIRCRPPRLPRPRPRPWGPPRP,-0.299
7,RRIRERPPRLPRPRPRPWPMPRP,0.00819
8,RRIRARPPRLPRPRPRPYIYPRP,-0.346
9,RRIRSRPPRLPRPRPRPNMKPRP,-0.436
10,RRIRRRPPRLPRPRPRPQWDPRP,0.0215
11,RRIRRRPPRLPRPRPRPMAGPRP,0.111
12,RRIRIRPPRLPRPRPRPTVIPRP,-0.108
13,RRIRHRPPRLPRPRPRPNGSPRP,-0.0827
14,RRIRYRPPRLPRPRPRPAKMPRP,-0.329
15,RRIRGRPPRLPRPRPRPDSQPRP,0.223
16,RRIRRRPPRLPRPRPRPINCPRP,-0.129
17,RRIRTRPPRLPRPRPRPPTPPRP,0.368
18,RRIRCRPPRLPRPRPRPYEQPRP,-0.435
19,RRIRNRPPRLPRPRPRPPCWPRP,0.231
20,RRIRCRPPRLPRPRPRPGVYPRP,-0.0723
21,RRIRCRPPRLPRPRPRPVFYPRP,-0.379
22,RRIRHRPPRLPRPRPRPHIEPRP,0.032
23,RRIRPRPPRLPRPRPRPYVRPRP,-0.61
24,RRIRWRPPRLPRPRPRPACIPRP,0.0736
25,RRIRDRPPRLPRPRPRPSVHPRP,-0.258

row,Sequence,shrunken log2 fold change
1,RRIRLRPPRLPRPRPRPVPGPRP,0.113
2,RRIRQRPPRLPRPRPRPIGAPRP,-0.0217
3,RRIRFRPPRLPRPRPRPCHIPRP,-0.11
4,RRIRRRPPRLPRPRPRPMEKPRP,0.096
5,RRIRYRPPRLPRPRPRPKAGPRP,-0.118
6,RRIRNRPPRLPRPRPRPHFRPRP,0.0231
7,RRIRMRPPRLPRPRPRPEGHPRP,2.72
8,RRIRRRPPRLPRPRPRPYECPRP,-0.0148
9,RRIRVRPPRLPRPRPRPRYWPRP,0.338
10,RRIRQRPPRLPRPRPRPVKNPRP,0.142
11,RRIRPRPPRLPRPRPRPTWGPRP,0.593
12,RRIRPRPPRLPRPRPRPCKDPRP,-0.374
13,RRIRNRPPRLPRPRPRPMAPPRP,-0.0631
14,RRIRRRPPRLPRPRPRPGSFPRP,0.122
15,RRIRKRPPRLPRPRPRPPGKPRP,0.756
16,RRIRMRPPRLPRPRPRPIWLPRP,0.0637
17,RRIRFRPPRLPRPRPRPCVGPRP,-0.433
18,RRIRNRPPRLPRPRPRPSHNPRP,-0.643
19,RRIRWRPPRLPRPRPRPTINPRP,-0.303
20,RRIRPRPPRLPRPRPRPNGAPRP,0.327
21,RRIRQRPPRLPRPRPRPNMNPRP,-0.528
22,RRIRCRPPRLPRPRPRPQYEPRP,-0.119
23,RRIRHRPPRLPRPRPRPVCEPRP,0.0977
24,RRIRQRPPRLPRPRPRPIYHPRP,-0.179
25,RRIRYRPPRLPRPRPRPYSRPRP,-0.01

row,Sequence,shrunken log2 fold change
1,RRIRTRPPRLPRPRPRPPKGPRP,0.107
2,RRIRHRPPRLPRPRPRPFIHPRP,-0.1
3,RRIRRRPPRLPRPRPRPPAFPRP,1.08
4,RRIRFRPPRLPRPRPRPHGSPRP,-0.0241
5,RRIRERPPRLPRPRPRPYKYPRP,0.686
6,RRIRLRPPRLPRPRPRPEWIPRP,0.00477
7,RRIRFRPPRLPRPRPRPLEFPRP,-0.0464
8,RRIRMRPPRLPRPRPRPKECPRP,-0.0981
9,RRIRYRPPRLPRPRPRPTLIPRP,-0.743
10,RRIRVRPPRLPRPRPRPFMKPRP,-0.737
11,RRIRGRPPRLPRPRPRPVRCPRP,0.814
12,RRIRYRPPRLPRPRPRPTFCPRP,0.115
13,RRIRCRPPRLPRPRPRPHETPRP,-0.035
14,RRIRERPPRLPRPRPRPYCPPRP,-1.59
15,RRIRKRPPRLPRPRPRPDMVPRP,-0.00254
16,RRIRTRPPRLPRPRPRPCISPRP,-0.503
17,RRIRSRPPRLPRPRPRPPPPPRP,1.03
18,RRIRMRPPRLPRPRPRPRPGPRP,1.38
19,RRIRSRPPRLPRPRPRPPYDPRP,-0.397
20,RRIRNRPPRLPRPRPRPTLFPRP,0.0912
21,RRIRARPPRLPRPRPRPKFTPRP,0.00836
22,RRIRIRPPRLPRPRPRPSSTPRP,-0.955
23,RRIRSRPPRLPRPRPRPHKQPRP,-0.0702
24,RRIRNRPPRLPRPRPRPMLDPRP,-0.000365
25,RRIRGRPPRLPRPRPRPGAAPRP,1.43
